{"source": "patent US20140348785A1", "target": "biotinylated gp41 MPER peptide RRR-(656-683)-RRK-biotin (HIV-1)", "experiment": "SPR: biotinylated MPER peptide on an SA chip, Fab as analyte, 1:1 Langmuir fit", "data": [{"substance": "2F5 Fab", "values": [{"measurement": "Kd", "value": 3.8, "unit": "nM"}]}, {"substance": "4E10 Fab", "values": [{"measurement": "Kd", "value": 0.74, "unit": "nM"}]}]}
